The labels stand for the following.
B1: Somatostatin receptor type 3 (Mus musculus), P30935 (parent)
chain: MATVTYPSSEPTTLDPGNASSTWPLDTTLGNTSAGASLTGLAVSGILISLVYLVVCVVGLLGNSLVIYVVLRHTSSPSVTSVYILNLALADELFMLGLPFLAAQNALSYWPFGSLMCRLVMAVDGINQFTSIFCLTVMSVDRYLAVVHPTRSARWRTAPVARTVSAAVWVASAVVVLPVVVFSGVPRGMSTCHMQWPEPAAAWRTAFIIYTAALGFFGPLLVICLCYLLIVVKVRSTTRRVRAPSCQWVQAPACQRRRRSERRVTRMVVAVVALFVLCWMPFYLLNIVNVVCPLPEEPAFFGLYFLVVALPYANSCANPILYGFLSYRFKQGFRRILLRPSRRIRSQEPGSGPPEKTEEEEDEEEEERREEEERRMQRGQEMNGRLSQIAQAGTSGQQPRPCTGTAKEQQLLPQEATAGDKASTLSHL
partner: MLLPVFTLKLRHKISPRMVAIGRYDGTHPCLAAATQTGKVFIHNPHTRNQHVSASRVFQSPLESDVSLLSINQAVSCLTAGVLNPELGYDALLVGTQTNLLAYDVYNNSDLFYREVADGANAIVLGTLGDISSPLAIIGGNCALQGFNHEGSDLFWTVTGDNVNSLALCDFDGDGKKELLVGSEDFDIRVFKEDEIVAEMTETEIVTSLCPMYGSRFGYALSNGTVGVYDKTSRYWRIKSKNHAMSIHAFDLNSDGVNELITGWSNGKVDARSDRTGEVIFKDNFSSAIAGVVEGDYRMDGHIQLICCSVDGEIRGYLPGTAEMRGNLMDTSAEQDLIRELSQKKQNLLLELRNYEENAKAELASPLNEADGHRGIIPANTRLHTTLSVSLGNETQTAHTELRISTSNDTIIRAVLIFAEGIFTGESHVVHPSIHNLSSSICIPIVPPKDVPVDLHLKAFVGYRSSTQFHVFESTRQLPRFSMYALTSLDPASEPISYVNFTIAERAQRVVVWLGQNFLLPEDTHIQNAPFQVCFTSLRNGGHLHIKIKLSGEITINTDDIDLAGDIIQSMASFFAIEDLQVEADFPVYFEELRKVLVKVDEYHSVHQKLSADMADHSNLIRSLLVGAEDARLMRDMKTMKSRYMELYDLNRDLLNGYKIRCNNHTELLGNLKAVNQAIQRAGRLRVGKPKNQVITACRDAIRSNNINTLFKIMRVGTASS
B2: ADP-ribosylation factor-like protein 6 (Homo sapiens), Q9H0F7 (parent)
chain: MGLLDRLSVLLGLKKKEVHVLCLGLDNSGKTTIINKLKPSNAQSQNILPTIGFSIEKFKSSSLSFTVFDMSGQGRYRNLWEHYYKEGQAIIFVIDSSDRLRMVVAKEELDTLLNHPDIKHRRIPILFFANKMDLRDAVTSVKVSQLLCLENIKDKPWHICASDAIKGEGLQEGVDWLQDQIQTVKT
partner: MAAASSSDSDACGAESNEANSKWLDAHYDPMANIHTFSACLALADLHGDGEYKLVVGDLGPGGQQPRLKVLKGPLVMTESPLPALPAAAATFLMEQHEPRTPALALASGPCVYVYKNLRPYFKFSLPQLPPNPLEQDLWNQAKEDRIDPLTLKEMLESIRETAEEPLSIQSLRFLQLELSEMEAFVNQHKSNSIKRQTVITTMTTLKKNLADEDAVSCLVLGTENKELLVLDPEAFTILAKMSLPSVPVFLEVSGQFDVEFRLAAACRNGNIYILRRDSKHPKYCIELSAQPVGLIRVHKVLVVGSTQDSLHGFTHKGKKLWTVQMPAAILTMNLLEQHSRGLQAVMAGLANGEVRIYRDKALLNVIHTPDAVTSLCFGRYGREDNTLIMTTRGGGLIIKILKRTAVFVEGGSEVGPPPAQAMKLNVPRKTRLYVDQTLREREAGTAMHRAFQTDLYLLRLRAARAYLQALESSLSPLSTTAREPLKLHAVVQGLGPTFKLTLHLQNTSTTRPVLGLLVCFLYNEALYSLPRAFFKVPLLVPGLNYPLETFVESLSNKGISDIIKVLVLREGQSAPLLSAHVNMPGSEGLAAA

One assay covers variants of B1. The note with it: with bbs2_human BBS2, Q9BXC9.
With MATVTYPSSEPTTLDPGNASSTWPLDTTLGNTSAGASLTGLAVSGILISLVYLVVCVVGLLGNSLVIYVVLRHTSSPSVTSVYILNLALADELFMLGLPFLAAQNALSYWPFGSLMCRLVMAVDGINQFTSIFCLTVMSVDRYLAVVHPTRSARWRTAPVARTVSAAVWVASAVVVLPVVVFSGVPRGMSTCHMQWPEPAAAWRTAFIIYTAALGFFGPLLVICLCYLLIVVKVRSTTRRVRAPSCAWVQAPACQRRRRSERRVTRMVVAVVALFVLCWMPFYLLNIVNVVCPLPEEPAFFGLYFLVVALPYANSCANPILYGFLSYRFKQGFRRILLRPSRRIRSQEPGSGPPEKTEEEEDEEEEERREEEERRMQRGQEMNGRLSQIAQAGTSGQQPRPCTGTAKEQQLLPQEATAGDKASTLSHL [Q247A], the “effect of a mutation on the interaction” value is given as “increasing interaction”. Turning to MATVTYPSSEPTTLDPGNASSTWPLDTTLGNTSAGASLTGLAVSGILISLVYLVVCVVGLLGNSLVIYVVLRHTSSPSVTSVYILNLALADELFMLGLPFLAAQNALSYWPFGSLMCRLVMAVDGINQFTSIFCLTVMSVDRYLAVVHPTRSARWRTAPVARTVSAAVWVASAVVVLPVVVFSGVPRGMSTCHMQWPEPAAAWRTAFIIYTAALGFFGPLLVICLCYLLIVVKVRSTTRRVRAPSAAWVQAPACQRRRRSERRVTRMVVAVVALFVLCWMPFYLLNIVNVVCPLPEEPAFFGLYFLVVALPYANSCANPILYGFLSYRFKQGFRRILLRPSRRIRSQEPGSGPPEKTEEEEDEEEEERREEEERRMQRGQEMNGRLSQIAQAGTSGQQPRPCTGTAKEQQLLPQEATAGDKASTLSHL [C246A;Q247A], the “effect of a mutation on the interaction” value is given as “decreasing interaction”. Turning to MATVTYPSSEPTTLDPGNASSTWPLDTTLGNTSAGASLTGLAVSGILISLVYLVVCVVGLLGNSLVIYVVLRHTSSPSVTSVYILNLALADELFMLGLPFLAAQNALSYWPFGSLMCRLVMAVDGINQFTSIFCLTVMSVDRYLAVVHPTRSARWRTAPVARTVSAAVWVASAVVVLPVVVFSGVPRGMSTCHMQWPEPAAAWRTAFIIYTAALGFFGPLLVICLCYLLIVVKVRSTTRRVRAASCAWVQAPACQRRRRSERRVTRMVVAVVALFVLCWMPFYLLNIVNVVCPLPEEPAFFGLYFLVVALPYANSCANPILYGFLSYRFKQGFRRILLRPSRRIRSQEPGSGPPEKTEEEEDEEEEERREEEERRMQRGQEMNGRLSQIAQAGTSGQQPRPCTGTAKEQQLLPQEATAGDKASTLSHL [P244A;Q247A], the “effect of a mutation on the interaction” value is reported as “increasing interaction”. In the case of MATVTYPSSEPTTLDPGNASSTWPLDTTLGNTSAGASLTGLAVSGILISLVYLVVCVVGLLGNSLVIYVVLRHTSSPSVTSVYILNLALADELFMLGLPFLAAQNALSYWPFGSLMCRLVMAVDGINQFTSIFCLTVMSVDRYLAVVHPTRSARWRTAPVARTVSAAVWVASAVVVLPVVVFSGVPRGMSTCHMQWPEPAAAWRTAFIIYTAALGFFGPLLVICLCYLLIVVKVRSTTRRVRAPSAQWVQAPACQRRRRSERRVTRMVVAVVALFVLCWMPFYLLNIVNVVCPLPEEPAFFGLYFLVVALPYANSCANPILYGFLSYRFKQGFRRILLRPSRRIRSQEPGSGPPEKTEEEEDEEEEERREEEERRMQRGQEMNGRLSQIAQAGTSGQQPRPCTGTAKEQQLLPQEATAGDKASTLSHL [C246A], the “effect of a mutation on the interaction” value is “disrupting interaction”. As to MATVTYPSSEPTTLDPGNASSTWPLDTTLGNTSAGASLTGLAVSGILISLVYLVVCVVGLLGNSLVIYVVLRHTSSPSVTSVYILNLALADELFMLGLPFLAAQNALSYWPFGSLMCRLVMAVDGINQFTSIFCLTVMSVDRYLAVVHPTRSARWRTAPVARTVSAAVWVASAVVVLPVVVFSGVPRGMSTCHMQWPEPAAAWRTAFIIYTAALGFFGPLLVICLCYLLIVVKVRSTTRRVRFPSCFWVQAPACQRRRRSERRVTRMVVAVVALFVLCWMPFYLLNIVNVVCPLPEEPAFFGLYFLVVALPYANSCANPILYGFLSYRFKQGFRRILLRPSRRIRSQEPGSGPPEKTEEEEDEEEEERREEEERRMQRGQEMNGRLSQIAQAGTSGQQPRPCTGTAKEQQLLPQEATAGDKASTLSHL [A243F;Q247F], the “effect of a mutation on the interaction” value is given as “increasing interaction”.

Another assay covers variants of B2. The conditions noted are these: with bbs1_human BBS1, Q8NFJ9.
As to MGLLDRLSVLLGLKKKEVHVLCLGLDNSGKTTIINKLKPSNAQSQNILPTIGFSIEKFKSSSLSFTVFDMSGLGRYRNLWEHYYKEGQAIIFVIDSSDRLRMVVAKEELDTLLNHPDIKHRRIPILFFANKMDLRDAVTSVKVSQLLCLENIKDKPWHICASDAIKGEGLQEGVDWLQDQIQTVKT [Q73L], the “effect of a mutation on the interaction” value is given as “increasing interaction”.

These data come from IntAct's records for PubMed 20603001.
